In the assay the target is HER2-ECD biotinylated at single site (human, UniProt P04626 23-652, biotinylated at single site). Put plainly: SPR. On the technique in general: SPR reads the build-up and loss of mass on a sensor chip optically.

From article PMC10351726 (2023) come the findings set out here.

Numbering of substitutions follows the chain as printed.

B1: NanoMab-02 (NM-02) (VHH)
VHH: QVQLQESGGGSVQAGETLRLSCTASGFTFDDSDMGWYRQAPGNECELVSSISSDGSTYYADSVKGRFTISQDNAKNTVYLQMNSLKPEDTGVYYCAAEGHRYELGTCAALDYWGRGTQVTVSS
What is called Kd is the free concentration of one partner at which half of the binding sites on the other are occupied at equilibrium, for simple one-to-one binding. Read a high Kd as a looser complex. With B1, the Kd came out at 183 pM.

B2: humanised NM-02 variant E (VHH)
VHH: B1 VHH with S11L, A14P, E16G, T17S, T23S, A74S, V78L, K86R, P87A, Q118L
With B2, the Kd is 434 pM.
